Reference: PMC12305717
Numbering of substitutions follows the chain as printed. In names and notes the source's numbering stands. Blank lines part the entries; values can stand above or below the binder they belong to.

Columns and labels:
[1] = molecular target: Ssa1 (yeast cytosolic Hsp70) (yeast) (UniProt P10591)
[2] = molecular target: Ssa1 (yeast cytosolic Hsp70) (yeast) (UniProt P10591); remark: listed apart in the source
[3] = molecular target: DnaK (E. coli Hsp70) (E. coli) (UniProt P0A6Y8)
DnaK (E. coli Hsp70) (E. coli), sequence (P0A6Y8 whole entry): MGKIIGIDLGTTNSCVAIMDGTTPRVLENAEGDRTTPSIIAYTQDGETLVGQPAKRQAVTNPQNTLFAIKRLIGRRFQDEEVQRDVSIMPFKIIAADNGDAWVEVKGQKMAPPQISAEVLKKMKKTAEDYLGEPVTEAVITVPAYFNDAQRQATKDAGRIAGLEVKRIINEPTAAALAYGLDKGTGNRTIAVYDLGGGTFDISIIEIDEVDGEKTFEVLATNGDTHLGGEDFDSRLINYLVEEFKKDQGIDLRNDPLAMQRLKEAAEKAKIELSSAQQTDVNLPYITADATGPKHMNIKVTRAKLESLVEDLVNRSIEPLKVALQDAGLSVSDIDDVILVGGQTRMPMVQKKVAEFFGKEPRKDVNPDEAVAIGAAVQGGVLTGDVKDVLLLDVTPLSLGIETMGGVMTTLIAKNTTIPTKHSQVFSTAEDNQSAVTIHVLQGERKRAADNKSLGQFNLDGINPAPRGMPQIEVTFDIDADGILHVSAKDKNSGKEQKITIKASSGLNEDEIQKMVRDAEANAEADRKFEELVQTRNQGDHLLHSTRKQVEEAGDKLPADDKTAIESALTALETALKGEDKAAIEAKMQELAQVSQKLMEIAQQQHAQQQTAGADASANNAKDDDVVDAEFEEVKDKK

Ssa1 (yeast cytosolic Hsp70) (yeast), sequence (P10591 whole entry): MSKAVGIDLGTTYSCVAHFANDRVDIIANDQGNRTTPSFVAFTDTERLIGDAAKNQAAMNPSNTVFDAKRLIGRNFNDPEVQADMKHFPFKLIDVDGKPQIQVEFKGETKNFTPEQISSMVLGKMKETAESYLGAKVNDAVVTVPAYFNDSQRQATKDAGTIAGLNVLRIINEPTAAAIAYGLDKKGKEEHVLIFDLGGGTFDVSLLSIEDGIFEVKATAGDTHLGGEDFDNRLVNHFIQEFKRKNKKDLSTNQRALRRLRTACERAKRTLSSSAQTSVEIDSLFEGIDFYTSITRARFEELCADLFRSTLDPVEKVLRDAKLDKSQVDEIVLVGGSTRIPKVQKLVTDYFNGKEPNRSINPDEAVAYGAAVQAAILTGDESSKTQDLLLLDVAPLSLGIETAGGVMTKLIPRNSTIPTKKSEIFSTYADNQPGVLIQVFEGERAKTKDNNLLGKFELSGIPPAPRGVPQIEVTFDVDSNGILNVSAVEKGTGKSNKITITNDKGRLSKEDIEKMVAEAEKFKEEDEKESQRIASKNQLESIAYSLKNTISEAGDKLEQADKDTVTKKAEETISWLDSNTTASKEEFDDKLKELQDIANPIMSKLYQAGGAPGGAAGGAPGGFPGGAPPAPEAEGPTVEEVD

EC50 of Sse1 for raising the yields of disaggregation and refolding (luciferase activity after 2 h) of pre-aggregated MlucV or luciferase by 4000 nM Ssa1 + 1000 nM Sis1 with ATP [1]: 100 nM | IC50 of excess Sse1 (above 250 nM) for inhibiting the disaggregation and refolding reaction of 4000 nM Ssa1 + 1000 nM Sis1; complete inhibition at equimolar Sse1 and Ssa1 [1]: 1200 nM | optimal concentration of WT Sse1 for activating the disaggregation/refolding of pre-aggregated luciferase by 6000 nM Ssa1 + 1000 nM Sis1 [2]: 600 nM
B1: Sse1 (yeast Hsp110), wild type (natural protein)
chain: MSTPFGLDLGNNNSVLAVARNRGIDIVVNEVSNRSTPSVVGFGPKNRYLGETGKNKQTSNIKNTVANLKRIIGLDYHHPDFEQESKHFTSKLVELDDKKTGAEVRFAGEKHVFSATQLAAMFIDKVKDTVKQDTKANITDVCIAVPPWYTEEQRYNIADAARIAGLNPVRIVNDVTAAGVSYGIFKTDLPEGEEKPRIVAFVDIGHSSYTCSIMAFKKGQLKVLGTACDKHFGGRDFDLAITEHFADEFKTKYKIDIRENPKAYNRILTAAEKLKKVLSANTNAPFSVESVMNDVDVSSQLSREELEELVKPLLERVTEPVTKALAQAKLSAEEVDFVEIIGGTTRIPTLKQSISEAFGKPLSTTLNQDEAIAKGAAFICAIHSPTLRVRPFKFEDIHPYSVSYSWDKQVEDEDHMEVFPAGSSFPSTKLITLNRTGDFSMAASYTDITQLPPNTPEQIANWEITGVQLPEGQDSVPVKLKLRCDPSGLHTIEEAYTIEDIEVEEPIPLPEDAPEDAEQEFKKVTKTVKKDDLTIVAHTFGLDAKKLNELIEKENEMLAQDKLVAETEDRKNTLEEYIYTLRGKLEEEYAPFASDAEKTKLQGMLNKAEEWLYDEGFDSIKAKYIAKYEELASLGNIIRGRYLAKEEEKKQAIRSKQEASQMAAMAEKLAAQRKAEAEKKEEKKDTEGDVDMD

concentration at which excess Sse1-K69M inhibits the disaggregation/refolding by 6000 nM Ssa1 + 1000 nM Sis1, against WT Sse1 (fold lower than WT Sse1) [2]: 4 | optimal concentration of Sse1-K69M for activating the disaggregation/refolding of pre-aggregated luciferase by 6000 nM Ssa1 + 1000 nM Sis1 [2]: 200 nM
B2: Sse1-K69M (natural protein)
chain: B1 chain with K69M

EC50 of GrpE for raising the yields of disaggregation and refolding of pre-aggregated MlucV by 4000 nM DnaK + 1000 nM DnaJ [3]: 200 nM
B3: GrpE (E. coli nucleotide exchange factor) (natural protein)
chain: MSSKEQKTPEGQAPEEIIMDQHEEIEAVEPEASAEQVDPRDEKVANLEAQLAEAQTRERDGILRVKAEMENLRRRTELDIEKAHKFALEKFINELLPVIDSLDRALEVADKANPDMSAMVEGIELTLKSMLDVVRKFGVEVIAETNVPLDPNVHQAIAMVESDDVAPGNVLGIMQKGYTLNGRTIRAAMVTVAKAKA
